Assay results reported in patent publication US20240199731A1 (published 2024).

Biological target: T1, Recombinant human IL-17A (Peprotech, cat #AF-200-17) (human, UniProt Q16552 24-155)
T1 construct: Bought protein
Test: SPR (BIAcore T200), IL-17A coupled to CM5 chip, VH as analyte, single-cycle kinetics
Protocol: VH binding kinetics were then determined from the (blank subtracted) sensorgram traces using 1:1 binding models and BIAevaluation software.

T1 sequence (Q16552 24-155): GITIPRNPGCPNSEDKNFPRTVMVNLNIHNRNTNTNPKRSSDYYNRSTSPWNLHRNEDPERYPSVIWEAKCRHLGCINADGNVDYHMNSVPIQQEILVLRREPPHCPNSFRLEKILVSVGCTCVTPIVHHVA

Kd: 1.5 nM
B1: Clone 1.17 (VHH)
VHH: EVQLVESGGGLVQPGGSLRLSCAASGFTFSSYSMYWVRQAPGKGLEWVAEIKPTGSVQYYVSDVKGRFTISRDNAKNSLYLQMNSLRAEDTAVYYCAKGEILPLYFDYWGQGTLVTVSS
notes: Human single VH domain; also called VH 1.17.1
